Among the data in patent US20090149389A1 are % of … [SEQ ID NO: 124] Reaction Velocity values, retold here.

For the experiment, the target named is MAPKAP kinase II (MK2) (UniProt P49137). Description: cell-based or functional assay.
Chain of MAPKAP kinase II (MK2) (P49137 whole entry): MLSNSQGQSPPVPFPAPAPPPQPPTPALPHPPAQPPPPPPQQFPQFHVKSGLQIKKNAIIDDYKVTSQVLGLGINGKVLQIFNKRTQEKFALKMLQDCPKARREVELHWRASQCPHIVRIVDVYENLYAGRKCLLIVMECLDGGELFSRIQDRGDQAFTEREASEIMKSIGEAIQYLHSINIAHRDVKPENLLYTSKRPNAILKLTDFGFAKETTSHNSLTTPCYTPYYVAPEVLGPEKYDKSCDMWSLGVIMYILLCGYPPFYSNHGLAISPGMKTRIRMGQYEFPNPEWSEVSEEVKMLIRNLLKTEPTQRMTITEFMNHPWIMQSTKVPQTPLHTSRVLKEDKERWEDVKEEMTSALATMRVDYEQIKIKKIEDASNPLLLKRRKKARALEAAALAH

KALNRdQLGVAA (peptide) gave a % of … [SEQ ID NO: 124] Reaction Velocity at an Inhibitor Concentration of 100 µM of 276%.
